# Measurements from the Immune Epitope Database (IEDB).
# pIC50, pKd: −log10 of the molar value.
# Columns and labels:
# HLA-C*12:03 = experiment: IEDB peptide-MHC binding, purified MHC/direct/fluorescence; filed as Kd, often an IC50 or EC50 that approximates it; ≥ and ≤ were set here for values at or beyond the usual limits of such assays
# HLA-B*07:02 [1] = experiment: as above
# HLA-A*29:02 = experiment: as above
# HLA-A*03:01 = experiment: as above
# HLA-A*02:16 = experiment: as above
# HLA-A*23:01 = experiment: as above
# HLA-A*02:19 = experiment: as above
# HLA-A*02:12 = experiment: as above
# HLA-A*68:02 = experiment: as above
# HLA-A*02:03 = experiment: as above
# HLA-A*02:11 = experiment: as above
# HLA-A*24:03 = experiment: as above
# HLA-B*51:01 = experiment: IEDB peptide-MHC binding, purified MHC/competitive/fluorescence; filed as Kd, often an IC50 or EC50 that approximates it; ≥ and ≤ were set here for values at or beyond the usual limits of such assays
# HLA-B*15:01 [2] = experiment: as above
# HLA-B*27:03 = experiment: as above
# HLA-B*46:01 [3] = experiment: as above
# HLA-B*18:01 [4] = experiment: as above
# HLA-B*39:01 [5] = experiment: as above
# HLA-B*15:17 = experiment: as above
# HLA-A*02:01 [6] = experiment: as above
# HLA-A*26:01 = experiment: as above
# HLA-B*57:01 [7] = experiment: as above
# HLA-B*07:02 [8] = experiment: IEDB peptide-MHC binding, purified MHC/competitive/fluorescence; ≥ and ≤ were set here for values at or beyond the usual limits of such assays; settings: source organism: Zaire ebolavirus
# HLA-A*02:01 [9] = experiment: as above; settings: source organism: Zaire ebolavirus
# HLA-B*08:01 = experiment: as above; settings: source organism: Zaire ebolavirus
# HLA-B*40:01 = experiment: IEDB peptide-MHC binding, purified MHC/direct/fluorescence; filed as Kd, often an IC50 or EC50 that approximates it; ≥ and ≤ were set here for values at or beyond the usual limits of such assays
# HLA-A*69:01 [10] = experiment: IEDB peptide-MHC binding, purified MHC/competitive/fluorescence; filed as Kd, often an IC50 or EC50 that approximates it; ≥ and ≤ were set here for values at or beyond the usual limits of such assays
# HLA-B*15:01 [11] = experiment: IEDB peptide-MHC binding, purified MHC/competitive/fluorescence; ≥ and ≤ were set here for values at or beyond the usual limits of such assays; settings: source organism: Zaire ebolavirus
# HLA-A*24:02 = experiment: as above; settings: source organism: Zaire ebolavirus
# HLA-B*27:05 = experiment: IEDB peptide-MHC binding, purified MHC/direct/fluorescence; filed as Kd, often an IC50 or EC50 that approximates it; ≥ and ≤ were set here for values at or beyond the usual limits of such assays
# HLA-B*15:01 [12] = experiment: as above; settings: source organism: Camelpox virus CMS
# HLA-B*58:01 = experiment: as above
# HLA-A*69:01 [13] = experiment: as above; settings: source organism: Camelpox virus CMS
# HLA-B*46:01 [14] = experiment: as above; settings: source organism: Camelpox virus CMS
# HLA-B*18:01 [15] = experiment: as above; settings: source organism: Camelpox virus CMS
# HLA-B*39:01 [16] = experiment: as above; settings: source organism: Camelpox virus CMS
# HLA-A*02:01 [17] = experiment: as above; settings: source organism: Camelpox virus CMS
# HLA-B*48:01 = experiment: as above; settings: source organism: Camelpox virus CMS
# HLA-A*26:02 = experiment: IEDB peptide-MHC binding, purified MHC/competitive/fluorescence; filed as Kd, often an IC50 or EC50 that approximates it; ≥ and ≤ were set here for values at or beyond the usual limits of such assays; settings: source organism: Variola virus
# HLA-A*01:01 = experiment: as above; settings: source organism: Variola virus
# HLA-B*57:01 [18] = experiment: IEDB peptide-MHC binding, purified MHC/direct/fluorescence; filed as Kd, often an IC50 or EC50 that approximates it; ≥ and ≤ were set here for values at or beyond the usual limits of such assays; settings: source organism: Mycobacterium tuberculosis variant bovis
# [19] = source organism: Zaire ebolavirus
# [20] = source organism: Reston ebolavirus
# [21] = source organism: Camelpox virus CMS
# [22] = source organism: Mycobacterium tuberculosis variant bovis BCG str. Pasteur 1173P2
sequence,measurement,setting,value
HAATNFREI,pKd,HLA-C*12:03; source organism: Angomonas deanei,7.60
HPLARTAKV,pKd,HLA-B*07:02 [1]; [19],7.34
same,pKd,HLA-A*29:02; [19],≤ 4.70
same,pKd,HLA-A*03:01; [19],≤ 4.70
same,pKd,HLA-A*02:16; [19],≤ 4.70
same,pKd,HLA-A*23:01; [19],≤ 4.70
same,pKd,HLA-A*02:19; [19],≤ 4.70
same,pKd,HLA-A*02:12; [19],≤ 4.70
same,pKd,HLA-A*68:02; [19],≤ 4.70
same,pKd,HLA-A*02:03; [19],≤ 4.70
same,pKd,HLA-A*02:11; [19],≤ 4.70
same,pKd,HLA-A*24:03; [19],≤ 4.70
same,pKd,HLA-B*51:01; [19],6.70
same,pKd,HLA-B*15:01 [2]; [19],≤ 4.70
same,pKd,HLA-B*27:03; [19],≤ 4.70
same,pKd,HLA-B*46:01 [3]; [19],≤ 4.70
same,pKd,HLA-B*18:01 [4]; [19],≤ 4.70
same,pKd,HLA-B*39:01 [5]; [19],≤ 4.70
same,pKd,HLA-B*15:17; [19],≤ 4.70
same,pKd,HLA-A*02:01 [6]; [19],≤ 4.70
same,pKd,HLA-A*26:01; [19],≤ 4.70
same,pKd,HLA-B*57:01 [7]; [19],≤ 4.70
same,pIC50,HLA-B*07:02 [8],5.51
same,pIC50,HLA-A*02:01 [9],≤ 3.95
same,pIC50,HLA-B*08:01,4.26
KEGKLQCRI,pKd,HLA-A*29:02; [19],≤ 4.70
same,pKd,HLA-A*03:01; [19],≤ 4.70
same,pKd,HLA-A*02:16; [19],≤ 4.70
same,pKd,HLA-A*23:01; [19],≤ 4.70
same,pKd,"HLA-B*40:01; source organism: Ebola virus - Eckron (Zaire, 1976)",≤ 4.70
same,pKd,HLA-A*02:19; [19],≤ 4.70
same,pKd,HLA-A*02:12; [19],≤ 4.70
same,pKd,HLA-A*68:02; [19],≤ 4.70
same,pKd,HLA-A*02:03; [19],≤ 4.70
same,pKd,HLA-A*02:11; [19],≤ 4.70
same,pKd,HLA-A*24:03; [19],≤ 4.70
same,pKd,HLA-B*51:01; [19],≤ 4.70
same,pKd,HLA-B*15:01 [2]; [19],≤ 4.70
same,pKd,HLA-B*27:03; [19],≤ 4.70
same,pKd,HLA-A*69:01 [10]; [19],≤ 4.70
same,pKd,HLA-B*46:01 [3]; [19],≤ 4.70
same,pKd,HLA-B*18:01 [4]; [19],≤ 4.70
same,pKd,HLA-B*39:01 [5]; [19],≤ 4.70
same,pKd,HLA-B*15:17; [19],≤ 4.70
same,pKd,HLA-A*02:01 [6]; [19],≤ 4.70
same,pKd,HLA-A*26:01; [19],≤ 4.70
same,pKd,HLA-B*57:01 [7]; [19],≤ 4.70
RDRFKRTSF,pKd,HLA-B*07:02 [1]; [19],≤ 4.70
same,pKd,HLA-A*03:01; [19],≤ 4.70
same,pKd,HLA-A*02:16; [19],≤ 4.70
same,pKd,HLA-A*23:01; [19],≤ 4.70
same,pKd,HLA-A*02:19; [19],≤ 4.70
same,pKd,HLA-A*02:12; [19],≤ 4.70
same,pKd,HLA-A*68:02; [19],≤ 4.70
same,pKd,HLA-A*02:03; [19],≤ 4.70
same,pKd,HLA-A*02:11; [19],≤ 4.70
same,pKd,HLA-A*24:03; [19],≤ 4.70
same,pKd,HLA-B*51:01; [19],≤ 4.70
same,pKd,HLA-B*15:01 [2]; [19],≤ 4.70
same,pKd,HLA-B*27:03; [19],≤ 4.70
same,pKd,HLA-A*69:01 [10]; [19],≤ 4.70
same,pKd,HLA-B*46:01 [3]; [19],≤ 4.70
same,pKd,HLA-B*18:01 [4]; [19],≤ 4.70
same,pKd,HLA-B*39:01 [5]; [19],≤ 4.70
same,pKd,HLA-B*15:17; [19],≤ 4.70
same,pKd,HLA-A*02:01 [6]; [19],≤ 4.70
same,pKd,HLA-A*26:01; [19],≤ 4.70
same,pKd,HLA-B*57:01 [7]; [19],≤ 4.70
same,pIC50,HLA-B*07:02 [8],≤ 4.13
same,pIC50,HLA-B*15:01 [11],4.44
same,pIC50,HLA-A*24:02,4.72
same,pIC50,HLA-B*08:01,≤ 3.94
RRELSKEKL,pKd,HLA-A*29:02; [20],≤ 4.70
same,pKd,HLA-A*03:01; [20],≤ 4.70
same,pKd,HLA-A*02:16; [20],≤ 4.70
same,pKd,HLA-A*23:01; [20],≤ 4.70
same,pKd,HLA-A*02:19; [20],≤ 4.70
same,pKd,HLA-A*02:12; [20],≤ 4.70
same,pKd,HLA-A*68:02; [20],≤ 4.70
same,pKd,HLA-A*02:03; [20],≤ 4.70
same,pKd,HLA-A*02:11; [20],≤ 4.70
same,pKd,HLA-A*24:03; [20],≤ 4.70
same,pKd,HLA-B*27:05; source organism: Reston ebolavirus - Reston,≤ 4.70
same,pKd,HLA-B*51:01; [20],≤ 4.70
same,pKd,HLA-B*15:01 [2]; [20],≤ 4.70
same,pKd,HLA-B*27:03; [20],≤ 4.70
same,pKd,HLA-A*69:01 [10]; [20],≤ 4.70
same,pKd,HLA-B*46:01 [3]; [20],≤ 4.70
same,pKd,HLA-B*18:01 [4]; [20],≤ 4.70
same,pKd,HLA-B*39:01 [5]; [20],≤ 4.70
same,pKd,HLA-B*15:17; [20],≤ 4.70
same,pKd,HLA-A*02:01 [6]; [20],≤ 4.70
same,pKd,HLA-A*26:01; [20],≤ 4.70
same,pKd,HLA-B*57:01 [7]; [20],≤ 4.70
SSDDIPPRW,pKd,HLA-B*07:02 [1]; [21],≤ 4.70
same,pKd,HLA-B*15:01 [12],≤ 4.70
same,pKd,HLA-B*58:01; [21],7.55
same,pKd,HLA-B*40:01; [21],≤ 4.70
same,pKd,HLA-A*69:01 [13],≤ 4.70
same,pKd,HLA-B*46:01 [14],≤ 4.70
same,pKd,HLA-B*18:01 [15],≤ 4.70
same,pKd,HLA-B*39:01 [16],≤ 4.70
same,pKd,HLA-A*02:01 [17],≤ 4.70
same,pKd,HLA-A*68:02; [21],≤ 4.70
same,pKd,HLA-B*48:01,≤ 4.70
same,pKd,HLA-B*27:05; [21],≤ 4.70
same,pKd,HLA-B*15:17; source organism: Variola virus,≤ 4.70
same,pKd,HLA-A*26:02,≤ 4.70
same,pKd,HLA-A*01:01,≤ 4.70
same,pKd,HLA-B*57:01 [7]; source organism: Variola virus,5.83
VAFYCAGRF,pKd,HLA-B*58:01; source organism: Mycobacterium tuberculosis variant bovis,6.95
same,pKd,HLA-C*12:03; [22],7.24
same,pKd,HLA-B*57:01 [18],6.35
same,pKd,HLA-B*46:01 [3]; [22],6.13
